Patent US20190218277A1 (Chugai, published 2019)

Key:
[1] = target: T1, Recombinant soluble E protein (0.8E-His) from DENV-3 (DENV-3, UniProt P27915 281-673)
T1 construct: also called DENV-3 E protein; DV3

[2] = target: T2, Recombinant soluble E protein (0.8E-His) from DENV-1 (DENV-1, UniProt P27909 281-675)
T2 construct: also called DENV-1 E protein; DV1

[3] = target: T3, Recombinant soluble E protein (0.8E-His) from DENV-2 (DENV-2, UniProt P14340 281-675); assay: SPR, Biacore T200
T3 construct: also called DENV-2 E protein; DV2

[4] = target: T4, Recombinant soluble E protein (0.8E-His) from DENV-4 (DENV-4, UniProt P09866 280-674); assay: SPR, Biacore T200
T4 construct: also called DENV-4 E protein; DV4

| Binder | Kd [1] [pM] | Kd [2] [nM] | binding result [3] | binding result [4] |
| --- | --- | --- | --- | --- |
| DG_3CH1000-SG1106/3CL012-SK1 (antibody) heavy: QVQLVQSGPDVEKPGASVKVSCKASGYTFTSYYMHWVRQAPGQGLEWMGVINPRGGSRRSAQKFQGRITMTRDTSTSTVYMELSSLRSEDTAVYYCARGGRALFYDSYTTPFDGGSWWFDPWGQGSLVTVSSASTKGPSVFPLAPSSKSTSGGTAALGCLVKDYFPEPVTVSWNSGALTSGVHTFPAVLQSSGLYSLSSVVTVPSSSLGTQTYICNVNHKPSNTKVDKRVEPKSCDKTHTCPPCPAPEAAGGPSVFLFPPKPKDTLMISRTPEVTCVVVDVSHEDPEVKFNWYVDGVEVHNAKTKPREEQYNSTYRVVSVLTVLHQDWLNGKEYKCKVSNAALPAPISKTISKAKGQPREPQVYTLPPSREEMTKNQVSLTCLVKGFYPSDIAVEWESNGQPENNYKTTPPVLDSDGSFFLYSKLTVDKSRWQQGNVFSCSVLHEALHAHYTRKELSLSP light: not shown | 0.101 | 1.91 | binds | binds |
| DG_3CH1000-SG1106/3CL119-SK1 (antibody) heavy: QVQLVQSGPDVEKPGASVKVSCKASGYTFTSYYMHWVRQAPGQGLEWMGVINPRGGSRRSAQKFQGRITMTRDTSTSTVYMELSSLRSEDTAVYYCARGGRALFYDSYTTPFDGGSWWFDPWGQGSLVTVSSASTKGPSVFPLAPSSKSTSGGTAALGCLVKDYFPEPVTVSWNSGALTSGVHTFPAVLQSSGLYSLSSVVTVPSSSLGTQTYICNVNHKPSNTKVDKRVEPKSCDKTHTCPPCPAPEAAGGPSVFLFPPKPKDTLMISRTPEVTCVVVDVSHEDPEVKFNWYVDGVEVHNAKTKPREEQYNSTYRVVSVLTVLHQDWLNGKEYKCKVSNAALPAPISKTISKAKGQPREPQVYTLPPSREEMTKNQVSLTCLVKGFYPSDIAVEWESNGQPENNYKTTPPVLDSDGSFFLYSKLTVDKSRWQQGNVFSCSVLHEALHAHYTRKELSLSP light: not shown | 1.82 | 1.91 | binds | binds |
| DG_3CH1047-SG1106/3CL012-SK1 (antibody) heavy: QVQLVQSGPDVEKPGASVKVSCKASGYTFTSYYMHWVRQAPGQGLEWMGVINPRGGSRRSAQKFQGRITMTRDTSTSTVYMELSSLRSEDTAVYYCARGGEALFYDSYTTPFDGGSWWFDPWGQGSLVTVSSASTKGPSVFPLAPSSKSTSGGTAALGCLVKDYFPEPVTVSWNSGALTSGVHTFPAVLQSSGLYSLSSVVTVPSSSLGTQTYICNVNHKPSNTKVDKRVEPKSCDKTHTCPPCPAPEAAGGPSVFLFPPKPKDTLMISRTPEVTCVVVDVSHEDPEVKFNWYVDGVEVHNAKTKPREEQYNSTYRVVSVLTVLHQDWLNGKEYKCKVSNAALPAPISKTISKAKGQPREPQVYTLPPSREEMTKNQVSLTCLVKGFYPSDIAVEWESNGQPENNYKTTPPVLDSDGSFFLYSKLTVDKSRWQQGNVFSCSVLHEALHAHYTRKELSLSP light: not shown | 2.36 | 2.18 | binds | binds |
| DG_3CH953-SG1106/3CL119-SK1 (antibody) heavy: QVQLVQSGPDVEKPGASVKVSCKASGYTFTSNYIHWVRQAPGQGLEWMGVINPRGGSRRSAQKFQGRITMTRDTSTSTVYMELSSLRSEDTAVYYCARGGRALFYDSYTTPFDGGSWWFDPWGQGSLVTVSSASTKGPSVFPLAPSSKSTSGGTAALGCLVKDYFPEPVTVSWNSGALTSGVHTFPAVLQSSGLYSLSSVVTVPSSSLGTQTYICNVNHKPSNTKVDKRVEPKSCDKTHTCPPCPAPEAAGGPSVFLFPPKPKDTLMISRTPEVTCVVVDVSHEDPEVKFNWYVDGVEVHNAKTKPREEQYNSTYRVVSVLTVLHQDWLNGKEYKCKVSNAALPAPISKTISKAKGQPREPQVYTLPPSREEMTKNQVSLTCLVKGFYPSDIAVEWESNGQPENNYKTTPPVLDSDGSFFLYSKLTVDKSRWQQGNVFSCSVLHEALHAHYTRKELSLSP light: not shown | 2.17 | 1.96 | binds | binds |
| DG_3CH1047-SG1106/3CL119-SK1 (antibody) heavy: QVQLVQSGPDVEKPGASVKVSCKASGYTFTSYYMHWVRQAPGQGLEWMGVINPRGGSRRSAQKFQGRITMTRDTSTSTVYMELSSLRSEDTAVYYCARGGEALFYDSYTTPFDGGSWWFDPWGQGSLVTVSSASTKGPSVFPLAPSSKSTSGGTAALGCLVKDYFPEPVTVSWNSGALTSGVHTFPAVLQSSGLYSLSSVVTVPSSSLGTQTYICNVNHKPSNTKVDKRVEPKSCDKTHTCPPCPAPEAAGGPSVFLFPPKPKDTLMISRTPEVTCVVVDVSHEDPEVKFNWYVDGVEVHNAKTKPREEQYNSTYRVVSVLTVLHQDWLNGKEYKCKVSNAALPAPISKTISKAKGQPREPQVYTLPPSREEMTKNQVSLTCLVKGFYPSDIAVEWESNGQPENNYKTTPPVLDSDGSFFLYSKLTVDKSRWQQGNVFSCSVLHEALHAHYTRKELSLSP light: not shown | 4.36 | 2.29 | binds | binds |
| DG_3CH1049-SG182/3CL012-SK1 (antibody, V domains shown) VH: QVQLVQSGAEVKKPGASVKVSCKASGYTFTSYYMHWVRQAPGQGLEWMGVINPRGGSRRSAQKFQGRVTMTRDTSTSTVYMELSSLRSEDTAVYYCARGGEALFYDSYTTPFDGGSWWFDPWGQGSLVTVSS VL: DIQLTQSPSSLSASVGDRVTFTCQASQDIRKYLNWYQQKPGKAPKLLIYDASNLKTGVPSRFSGSGSGTDFTFTISSLQPEDVATYYCQQFEDLPITFGQGTRLQIKR | 1.05 | 2.26 | binds | binds |
| DG_3CH1049-SG182/3CL668-SK1 (antibody, V domains shown) VH: QVQLVQSGAEVKKPGASVKVSCKASGYTFTSYYMHWVRQAPGQGLEWMGVINPRGGSRRSAQKFQGRVTMTRDTSTSTVYMELSSLRSEDTAVYYCARGGEALFYDSYTTPFDGGSWWFDPWGQGSLVTVSS VL: DIQLTQSPSSLSASVGDRVTITCQASQDIRKYLNWYQQKPGKAPKLLIYDASNLKTGVPSRFSGSGSGTDFTLTISSLQPEDVATYYCQQFEDLPITFGQGTRLQIKR | 1.55 | 1.7 | binds | binds |
| DG_3CH1046-SG182/3CL666-SK1 (antibody, V domains shown) VH: QVQLVQSGAEVKKPGASVKVSCKASGYTFTSYYMHWVRQAPGQGLEWMGVINPRGGSRRSAQKFQGRVTMTRDTSTSTVYMELSSLRSEDTAVYYCARGGRALFYDSYTTPFDGGSWWFDPWGQGSLVTVSS VL: DIQLTQSPSSLSASVGDRVTITCQASQEIRKYLNWYQQKPGKAPKLLIYDASNLKTGVPSRFSGSGSGTDFTLTISSLQPEDVATYYCQQFDDLPITFGQGTRLQIKR | 0.47 | 1.52 | binds | binds |
| DG_3CH1046-SG182/3CL668-SK1 (antibody, V domains shown) VH: QVQLVQSGAEVKKPGASVKVSCKASGYTFTSYYMHWVRQAPGQGLEWMGVINPRGGSRRSAQKFQGRVTMTRDTSTSTVYMELSSLRSEDTAVYYCARGGRALFYDSYTTPFDGGSWWFDPWGQGSLVTVSS VL: DIQLTQSPSSLSASVGDRVTITCQASQDIRKYLNWYQQKPGKAPKLLIYDASNLKTGVPSRFSGSGSGTDFTLTISSLQPEDVATYYCQQFEDLPITFGQGTRLQIKR | 0.559 | 1.56 | binds | binds |
| DG_3CH1049-SG182/3CL633-SK1 (antibody, V domains shown) VH: QVQLVQSGAEVKKPGASVKVSCKASGYTFTSYYMHWVRQAPGQGLEWMGVINPRGGSRRSAQKFQGRVTMTRDTSTSTVYMELSSLRSEDTAVYYCARGGEALFYDSYTTPFDGGSWWFDPWGQGSLVTVSS VL: DIQLTQSPSSLSASVGDRVTITCQASQDIRKYLNWYQQKPGKAPKLLIYDASNLKTGVPSRFSGSGSGTDFTLTISSLQPEDVATYYCQQFDDLPITFGQGTRLQIKR | 4.1 | 1.73 | binds | binds |
| DG_3CH1049-SG182/3CL666-SK1 (antibody, V domains shown) VH: QVQLVQSGAEVKKPGASVKVSCKASGYTFTSYYMHWVRQAPGQGLEWMGVINPRGGSRRSAQKFQGRVTMTRDTSTSTVYMELSSLRSEDTAVYYCARGGEALFYDSYTTPFDGGSWWFDPWGQGSLVTVSS VL: DIQLTQSPSSLSASVGDRVTITCQASQEIRKYLNWYQQKPGKAPKLLIYDASNLKTGVPSRFSGSGSGTDFTLTISSLQPEDVATYYCQQFDDLPITFGQGTRLQIKR | 2.95 | 1.72 | binds | binds |
| DG_3CH1049-SG182/3CL119-SK1 (antibody, V domains shown) VH: QVQLVQSGAEVKKPGASVKVSCKASGYTFTSYYMHWVRQAPGQGLEWMGVINPRGGSRRSAQKFQGRVTMTRDTSTSTVYMELSSLRSEDTAVYYCARGGEALFYDSYTTPFDGGSWWFDPWGQGSLVTVSS VL: DIQLTQSPSSLSASVGDRVTFTCQASQEIRKYLNWYQQKPGKAPKLLIYDASNLKTGVPSRFSGSGSGTDFTFTISSLQPEDVATYYCQQFDDLPITFGQGTRLQIKR | 5.09 | 1.72 | binds | binds |
| DG_3CH1049-SG182/3CL-SK1 (antibody, V domains shown) VH: QVQLVQSGAEVKKPGASVKVSCKASGYTFTSYYMHWVRQAPGQGLEWMGVINPRGGSRRSAQKFQGRVTMTRDTSTSTVYMELSSLRSEDTAVYYCARGGEALFYDSYTTPFDGGSWWFDPWGQGSLVTVSS VL: DIQLTQSPSSLSASVGDRVTFTCQASQDIRKYLNWYQQKPGKAPKLLIYDASNLKTGVPSRFSGSGSGTDFTFTISSLQPEDVATYYCQQFDDLPITFGQGTRLQIKR | 2.39 | 2.14 | binds | binds |
